Results on 1 molecule are retold here after paper PMC11004252.

The assay concerns the target phospho-Ser 2 carboxy-terminal domain (CTD) RNA polymerase II (human (endogenous in hSAECs)), P24928. The assay is described as follows: proximity ligation; Duolink in situ PLA, mouse anti-IRF1 and rabbit anti-pSer2 Pol II Abs, fixed and permeabilized hSAECs, mock or RSV infected (MOI 1, 24 h), solvent. As to conditions: remark: other sources report otherwise.

B1: interferon regulatory factor 1 (IRF1), P10914 1-325 (natural protein)
chain: MPITRMRMRPWLEMQINSNQIPGLIWINKEEMIFQIPWKHAAKHGWDINKDACLFRSWAIHTGRYKAGEKEPDPKTWKANFRCAMNSLPDIEEVKDQSRNKGSSAVRVYRMLPPLTKNQRKERKSKSSRDAKSKAKRKSCGDSSPDTFSDGLSSSTLPDDHSSYTVPGYMQDLEVEQALTPALSPCAVSSTLPDWHIPVEVVPDSTSDLYNFQVSPMPSTSEATTDEDEEGKLPEDIMKLLEQSEWQPTNVDGKGYLLNEPGVQPTSVYGDFSCKEEPEIDSPGGDIGLSLQRVFTDLKNMDATWLDSLLTPVRLPSIQAIPCAP
modifications: here or on the partner: phospho-Ser 2 of the carboxy-terminal domain (CTD)
In the case of B1, the PLA foci/nucleus (RSV infected) turned out to be 24 foci/nucleus; the PLA foci/nucleus (mock infected) turned out to be 6.3 foci/nucleus; the fold increase of PLA complex, RSV against mock was 25 fold; the percent of cells with PLA complexes (uninfected) is > 90 % of cells.
